The text below walks through data of paper PMC8164048.

The target of assay [1] is Full-length human low-density lipoprotein receptor-related protein 1 (LRP1) (human) (UniProt Q07954). Briefly: SPR; full-length LRP1 coupled to the chip (Biacore 3000); single-cycle kinetic titration of tau forms (3.8, 11.5, 34.4, 103.3, 310 nM, 3.5-min injections), with Ca2+; Req from a pseudo first-order fit plotted against concentration, KD by nonlinear regression. On the technique in general: Surface plasmon resonance follows binding to a sensor surface in real time, without labels.

For assay [2] the target is unchanged. Briefly: SPR; LRP1-coupled chip; lipid-free apoE isoforms; equilibrium analysis, Req from a pseudo first-order fit of the association data.
Assay [3] has the same target. Briefly: SPR; LRP1-coupled chip; lipid-free apoE isoforms injected at 52, 104, 208, 417, 834, 1668 nM; association and dissociation fit globally to a bivalent binding model; KD = 1/KA, KA = (ka1/kd1)*(1+(ka2/kd2)).

UniProt Q07954, sequence (Q07954 20-4544): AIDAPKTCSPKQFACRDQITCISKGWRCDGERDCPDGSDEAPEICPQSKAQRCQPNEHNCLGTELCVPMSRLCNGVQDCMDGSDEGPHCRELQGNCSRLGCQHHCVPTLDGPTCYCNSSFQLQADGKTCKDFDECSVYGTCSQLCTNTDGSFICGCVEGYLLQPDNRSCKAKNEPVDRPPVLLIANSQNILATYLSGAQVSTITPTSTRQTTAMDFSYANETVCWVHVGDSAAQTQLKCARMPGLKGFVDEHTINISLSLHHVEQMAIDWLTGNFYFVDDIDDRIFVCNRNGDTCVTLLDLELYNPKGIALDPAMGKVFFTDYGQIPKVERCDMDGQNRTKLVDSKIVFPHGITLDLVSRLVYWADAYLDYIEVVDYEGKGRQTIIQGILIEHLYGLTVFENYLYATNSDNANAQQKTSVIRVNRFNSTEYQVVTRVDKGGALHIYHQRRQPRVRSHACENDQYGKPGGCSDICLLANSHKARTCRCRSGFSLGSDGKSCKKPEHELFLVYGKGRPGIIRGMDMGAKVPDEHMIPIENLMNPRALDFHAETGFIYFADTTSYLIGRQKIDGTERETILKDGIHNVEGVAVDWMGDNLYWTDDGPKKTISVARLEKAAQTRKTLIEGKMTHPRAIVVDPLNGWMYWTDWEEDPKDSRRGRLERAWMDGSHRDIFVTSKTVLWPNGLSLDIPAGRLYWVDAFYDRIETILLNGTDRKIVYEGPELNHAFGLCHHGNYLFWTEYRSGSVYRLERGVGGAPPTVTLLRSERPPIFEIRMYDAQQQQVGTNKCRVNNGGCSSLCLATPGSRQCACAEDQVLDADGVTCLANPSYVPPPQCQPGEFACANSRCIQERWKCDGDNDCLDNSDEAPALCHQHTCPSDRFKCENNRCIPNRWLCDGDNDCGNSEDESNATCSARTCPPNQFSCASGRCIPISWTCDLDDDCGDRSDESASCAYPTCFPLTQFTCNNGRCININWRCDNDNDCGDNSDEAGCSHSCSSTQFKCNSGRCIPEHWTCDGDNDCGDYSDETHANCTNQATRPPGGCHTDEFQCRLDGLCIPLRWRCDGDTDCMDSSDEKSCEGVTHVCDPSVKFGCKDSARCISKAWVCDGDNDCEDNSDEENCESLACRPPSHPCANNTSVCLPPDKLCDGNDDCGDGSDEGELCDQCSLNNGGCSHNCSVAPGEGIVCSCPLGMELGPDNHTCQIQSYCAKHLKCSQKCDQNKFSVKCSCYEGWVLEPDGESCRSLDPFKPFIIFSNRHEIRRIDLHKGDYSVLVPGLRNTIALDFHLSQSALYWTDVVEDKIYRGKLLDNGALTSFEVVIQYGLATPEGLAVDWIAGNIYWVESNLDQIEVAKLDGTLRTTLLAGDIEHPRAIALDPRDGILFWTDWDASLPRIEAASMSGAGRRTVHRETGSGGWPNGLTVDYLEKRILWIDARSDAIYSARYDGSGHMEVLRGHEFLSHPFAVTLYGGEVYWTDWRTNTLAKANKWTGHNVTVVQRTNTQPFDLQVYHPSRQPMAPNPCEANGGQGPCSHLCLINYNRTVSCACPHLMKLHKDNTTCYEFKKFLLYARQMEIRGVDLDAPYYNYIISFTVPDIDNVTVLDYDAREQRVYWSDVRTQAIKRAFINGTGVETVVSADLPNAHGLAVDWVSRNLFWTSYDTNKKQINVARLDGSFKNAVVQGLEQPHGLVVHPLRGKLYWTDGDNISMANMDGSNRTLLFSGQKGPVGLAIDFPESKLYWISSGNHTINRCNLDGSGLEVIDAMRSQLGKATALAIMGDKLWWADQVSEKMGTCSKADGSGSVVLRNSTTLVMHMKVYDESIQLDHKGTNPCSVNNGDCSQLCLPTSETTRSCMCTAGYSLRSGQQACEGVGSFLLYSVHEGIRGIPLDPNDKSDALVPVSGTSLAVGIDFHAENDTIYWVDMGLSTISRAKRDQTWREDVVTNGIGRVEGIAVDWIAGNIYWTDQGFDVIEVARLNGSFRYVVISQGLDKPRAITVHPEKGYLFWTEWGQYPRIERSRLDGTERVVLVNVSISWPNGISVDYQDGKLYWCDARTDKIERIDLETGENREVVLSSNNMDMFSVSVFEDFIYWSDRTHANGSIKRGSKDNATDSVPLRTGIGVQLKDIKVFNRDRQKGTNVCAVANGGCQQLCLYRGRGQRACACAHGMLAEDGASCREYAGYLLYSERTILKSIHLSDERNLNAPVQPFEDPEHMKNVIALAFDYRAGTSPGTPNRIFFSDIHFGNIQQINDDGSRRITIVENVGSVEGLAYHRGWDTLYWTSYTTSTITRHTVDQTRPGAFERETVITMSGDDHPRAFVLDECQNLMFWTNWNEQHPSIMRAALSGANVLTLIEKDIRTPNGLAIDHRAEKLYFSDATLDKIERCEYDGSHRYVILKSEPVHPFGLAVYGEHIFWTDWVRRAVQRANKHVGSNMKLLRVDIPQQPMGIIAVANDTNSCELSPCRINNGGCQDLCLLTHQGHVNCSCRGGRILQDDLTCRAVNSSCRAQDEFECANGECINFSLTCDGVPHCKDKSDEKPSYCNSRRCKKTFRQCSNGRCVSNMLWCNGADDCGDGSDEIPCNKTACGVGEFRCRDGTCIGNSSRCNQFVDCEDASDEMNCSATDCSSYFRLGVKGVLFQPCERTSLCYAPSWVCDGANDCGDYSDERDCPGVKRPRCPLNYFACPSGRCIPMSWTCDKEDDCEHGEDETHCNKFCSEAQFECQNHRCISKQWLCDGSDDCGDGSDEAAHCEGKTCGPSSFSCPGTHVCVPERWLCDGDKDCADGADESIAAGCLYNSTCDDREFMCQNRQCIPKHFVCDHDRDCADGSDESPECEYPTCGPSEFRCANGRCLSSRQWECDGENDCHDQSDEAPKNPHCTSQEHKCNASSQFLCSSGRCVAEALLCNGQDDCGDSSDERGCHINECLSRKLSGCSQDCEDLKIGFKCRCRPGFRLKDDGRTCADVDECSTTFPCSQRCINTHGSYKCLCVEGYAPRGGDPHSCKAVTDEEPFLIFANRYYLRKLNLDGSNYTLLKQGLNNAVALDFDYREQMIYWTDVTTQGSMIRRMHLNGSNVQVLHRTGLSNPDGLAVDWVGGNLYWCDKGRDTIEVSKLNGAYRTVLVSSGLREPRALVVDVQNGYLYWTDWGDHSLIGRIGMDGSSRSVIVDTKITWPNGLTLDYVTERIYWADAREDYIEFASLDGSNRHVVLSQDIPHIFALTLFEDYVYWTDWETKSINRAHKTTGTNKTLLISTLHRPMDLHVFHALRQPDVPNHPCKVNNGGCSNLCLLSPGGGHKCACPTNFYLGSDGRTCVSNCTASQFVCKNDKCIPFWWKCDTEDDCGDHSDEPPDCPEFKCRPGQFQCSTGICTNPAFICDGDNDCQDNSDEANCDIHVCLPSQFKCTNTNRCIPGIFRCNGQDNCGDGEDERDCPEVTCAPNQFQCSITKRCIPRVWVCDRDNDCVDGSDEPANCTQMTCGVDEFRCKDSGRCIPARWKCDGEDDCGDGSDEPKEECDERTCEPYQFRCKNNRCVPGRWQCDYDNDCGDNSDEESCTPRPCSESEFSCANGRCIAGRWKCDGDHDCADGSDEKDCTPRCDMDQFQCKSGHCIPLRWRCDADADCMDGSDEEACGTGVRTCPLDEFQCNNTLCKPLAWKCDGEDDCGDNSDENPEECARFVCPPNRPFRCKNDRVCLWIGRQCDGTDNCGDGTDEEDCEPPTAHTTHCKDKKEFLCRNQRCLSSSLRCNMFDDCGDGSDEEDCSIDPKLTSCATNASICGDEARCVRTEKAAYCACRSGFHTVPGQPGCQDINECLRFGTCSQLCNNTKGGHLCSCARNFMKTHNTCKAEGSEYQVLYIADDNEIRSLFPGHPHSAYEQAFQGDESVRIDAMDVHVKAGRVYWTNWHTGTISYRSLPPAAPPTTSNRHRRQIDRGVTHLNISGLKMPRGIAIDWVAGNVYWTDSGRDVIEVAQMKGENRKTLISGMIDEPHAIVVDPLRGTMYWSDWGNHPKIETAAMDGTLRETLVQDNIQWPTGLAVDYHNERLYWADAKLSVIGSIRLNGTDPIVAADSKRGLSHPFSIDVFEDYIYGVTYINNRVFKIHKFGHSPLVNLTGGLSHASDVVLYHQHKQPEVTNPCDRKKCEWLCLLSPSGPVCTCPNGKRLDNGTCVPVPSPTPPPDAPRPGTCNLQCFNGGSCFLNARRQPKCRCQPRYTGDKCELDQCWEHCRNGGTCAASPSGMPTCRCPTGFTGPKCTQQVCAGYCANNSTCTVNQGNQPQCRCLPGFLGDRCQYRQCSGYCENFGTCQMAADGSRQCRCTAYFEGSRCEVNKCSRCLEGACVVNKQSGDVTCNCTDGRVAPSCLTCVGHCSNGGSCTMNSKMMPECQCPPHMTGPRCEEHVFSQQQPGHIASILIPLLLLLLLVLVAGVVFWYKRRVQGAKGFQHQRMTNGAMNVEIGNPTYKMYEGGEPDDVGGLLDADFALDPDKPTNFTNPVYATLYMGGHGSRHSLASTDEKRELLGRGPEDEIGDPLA

Substance 9XKQ 2N4R tau (natural protein) yielded a Kd in assay [1] of 372 nM.
As to “Recombinant human apolipoprotein E2 (lipid-free) (from UniProt P02649 19-317) (ligand)”, in assay [2], the Kd was 493 nM. In assay [3], the Kd stood at 529 nM, the ka1 amounted to 34000 M⁻¹ s⁻¹, the ka2 worked out at 0.01 s⁻¹ and the kd1 came out at 0.086 s⁻¹. In assay [3], the kd2 is 0.0028 s⁻¹.
Substance “Recombinant human apolipoprotein E4 (lipid-free) (from UniProt P02649 19-317) (ligand)” came in with a Kd in assay [2] of 236 nM. In assay [3], this substance registered a Kd of 202 nM, a ka1 of 62000 M⁻¹ s⁻¹, a ka2 of 0.0099 s⁻¹ and a kd1 of 0.065 s⁻¹. In addition, the kd2 in assay [3] amounted to 0.0027 s⁻¹.
